B1: methylesterase/deamidase CheB from E. coli, low-activity, unphosphorylated form (enzyme, UniProt P07330 1-349, looked up)
chain: MSKIRVLSVDDSALMRQIMTEIINSHSDMEMVATAPDPLVARDLIKKFNPDVLTLDVEMPRMDGLDFLEKLMRLRPMPVVMVSSLTGKGSEVTLRALELGAIDFVTKPQLGIREGMLAYNEMIAEKVRTAAKASLAAHKPLSAPTTLKAGPLLSSEKLIAIGASTGGTEAIRHVLQPLPLSSPALLITQHMPPGFTRSFADRLNKLCQIGVKEAEDGERVLPGHAYIAPGDRHMELSRSGANYQIKIHDGPAVNRHRPSVDVLFHSVAKQAGRNAVGVILTGMGNDGAAGMLAMRQAGAWTLAQNEASCVVFGMPREAINMGGVCEVVDLSQVSQQMLAKISAGQAIRI
notes: CheB methylesterase/deamidase of E. coli, unphosphorylated, from plasmid pCW/cheB; measured with 2 mM DTT in the buffer; also called low-activity CheB; unmodified CheB; source: E. coli K-12 RP3098 with pCW/cheB, purified
B2: CheBC, catalytic domain of E. coli CheB lacking the regulatory domain and linker (domain or fragment)
chain: LSSEKLIAIGASTGGTEAIRHVLQPLPLSSPALLITQHMPPGFTRSFADRLNKLCQIGVKEAEDGERVLPGHAYIAPGDRHMELSRSGANYQIKIHDGPAVNRHRPSVDVLFHSVAKQAGRNAVGVILTGMGNDGAAGMLAMRQAGAWTLAQNEASCVVFGMPREAINMGGVCEVVDLSQVSQQMLAKISAGQAIRI

Columns and labels:
[1] = biological target: Tar4E (chemoreceptor Tar, all-glutamyl, pentapeptide-bearing); test: CheB binding to pentapeptide-bearing Tar4E in Nanodiscs (biolayer interferometry); parameters: species or system E. coli; details: Tar 4E, pentapeptide yes, BLI; for dwell time (1/koff) / KA (equilibrium association constant) / kon (apparent association rate constant): pH 7.5, 2% BSA (plus 2 mM DTT for CheB and CheBc); for dwell time (1/koff): calculated from mean koff; for kon (apparent association rate constant): mean ± SD of at least three independent experiments
Experimental: (§1) We determined the kinetics of association and dissociation of methylesterase/deamidase CheB in its low- and high-activity form with the E. coli aspartate chemoreceptor Tar using biolayer interferometry ([22], [23]) and isolated receptor homodimers in Nanodiscs ([24], [25]). Apparent rate constants of association and dissociation were derived from global fits of time courses for binding and release (see Fig. S1 in the supplemental material). Equilibrium dissociation constants were calculated from those apparent rate constants.
Supplementary file : FIG S1 Example time courses of CheB binding to Tar. Time courses from five consecutive runs of CheB at different concentrations binding to immobilized Tar4E homodimers. For each time course, a sensor tip decorated with avidin to which were bound biotinylated Tar homodimers in Nanodiscs was placed in buffer and a baseline was established (240 to 255 s). The tip was then placed in a tube containing a solution of CheB at a specific concentration. After 30 s, at which time binding of CheB and Tar was close to an apparent equilibrium, the tip was switched to a tube of buffer, and dissociation was monitored. The global fit to the data is shown as a thin black line. Download FIG S1, TIF file, 1.9 MB.
(§2) E. coli CheB and Salmonella CheB D56C/C207S/C309S and D56C/S164A/C207S/C309S were purified as described previously ([11]). CheBC (amino acids [aa] 153 to 349) was purified using the procedure of West et al. ([40]), except that Bio-Gel P-60, was not used. CheB D56C/C207S/C309S and CheB D56C/S164A/C207S/C309S were modified to create a disulfide-linked phosphoryl group on D56C following the procedure described in reference but using a 10-fold molar excess of DTNB [Ellman’s reagent, 5,5′-disulfanediylbis(2-nitrobenzoic acid)] rather than 90-fold and a 50-fold molar excess Na3SPO3 rather than 1,000-fold. The extent of modification was 59% for the former and 60% for the latter determined by reversed phase chromatography essentially as described previously ([26]) and confirmed by Nano LC-Nanospray QTQF mass spectroscopy. Membrane scaffold protein MSP1D1(-) ([41]) was purified as described previously ([25]). Tar4E L378C, Tar4Q L378C, Tar4EΔpp-6H L378C, and Tar4QΔpp-6H L378C were purified, incorporated into Nanodiscs at approximately one receptor dimer per disc, and biotinylated at L378C as described previously ([23], [42]). […] These activities were confirmed for representative samples used in our analyses. Receptor-containing Nanodiscs were dialyzed into 50 mM Tris-HCl (pH 7.5), 0.5 mM EDTA, 10% (wt/vol) glycerol, and 100 mM NaCl. Prior to a binding experiment, the solution was changed using a spin desalting column to 50 mM Tris-HCl, 10% (wt/vol) glycerol, 5 mM MgCl2, and 50 mM KCl (pH 7.5).
(§3) Kinetics of CheB association and dissociation with Nanodisc-embedded Tar biotinylated at L378C were determined using biolayer interferometry ([22], [23]) as measured by a BLItz instrument (ForteBio, Menlo Park, CA, USA) and described in reference. Representative time course experiments are shown in Fig. S1 in the supplemental material. Measurements for CheB-P* and CheB-P*-I were in 50 mM Tris-HCl (pH 7.5), 10% (wt/vol) glycerol, 5 mM MgCl2, 50 mM KCl, and 2% (wt/vol) bovine serum albumin (BSA). Measurements for CheB and CheBc were in the same solution plus 2 mM dithiothreitol (DTT).
Using BLItz software, response curves were fit globally to a 1:1 binding model to yield apparent association rate constants (kon) and dissociation rate constants (koff). For analysis of complex patterns of binding, in which more than one binding reaction appeared to be contributing, for instance one that appeared saturable and another nonspecific, nonsaturable, the data were exported and fit globally to nonlinear exponential functions using OriginPro 2017. The best fits to the data were obtained using the following functions. […]

[2] = tested on: Tar4EΔpp (chemoreceptor Tar, all-glutamyl, lacking NWETF); test: CheB binding to Tar4EΔpp (pentapeptide-lacking) in Nanodiscs (biolayer interferometry); parameters: species or system E. coli; details: Tar 4E, pentapeptide no, BLI, pH 7.5, 2% BSA (plus 2 mM DTT for CheB and CheBc); for dwell time (1/koff): calculated from mean koff; for dwell time (1/koff) / KA (equilibrium association constant): propagated SD; for KA (equilibrium association constant): calculated from mean kon and koff; for kon (apparent association rate constant): mean ± SD of at least three independent experiments
Experimental: as §1, §2, §3
(§4) Using BLItz software, response curves were fit globally to a 1:1 binding model to yield apparent association rate constants (kon) and dissociation rate constants (koff). For analysis of complex patterns of binding, in which more than one binding reaction appeared to be contributing, for instance one that appeared saturable and another nonspecific, nonsaturable, the data were exported and fit globally to nonlinear exponential functions using OriginPro 2017. The best fits to the data were obtained using the following functions. R=R0 + Req[a(e^−kd1 t) + b(e^−kd2 t)] was used to globally fit dissociation time courses, with R being the response (in nanometers), a + b = 1, with a and b being the portion of the signal (in nanometers) for fast and slow phases, respectively, kd1 and kd2 being the respective dissociation rate constants, and Req being the response at equilibrium. Association data were fit using apparent dissociation rate constants kd1 and kd2, relevant CheB concentrations (C) and the equation R=R0 + Req[a(1 − e^−(ka1 C+kd1)t) + b(1 − e^−(ka2 C+kd2)t)]

[3] = biological target: Tar4Q L378C, E. coli aspartate chemoreceptor Tar, all-glutaminyl form with carboxyl-terminal pentapeptide, … (E. coli, UniProt P07017 1-553, L378C, biotinylated at L378C); test: SPR
[4] = biological target: Tar4Q (chemoreceptor Tar, all-glutaminyl, pentapeptide-bearing); test: CheB binding to pentapeptide-bearing Tar4Q in Nanodiscs (biolayer interferometry); parameters: species or system E. coli; details: Tar 4Q, pentapeptide yes, BLI; for dwell time (1/koff) / KA (equilibrium association constant) / kon (apparent association rate constant): pH 7.5, 2% BSA (plus 2 mM DTT for CheB and CheBc); for dwell time (1/koff): calculated from mean koff; for kon (apparent association rate constant): mean ± SD of at least three independent experiments
Experimental: as §1, §2, §3, §4

[5] = tested on: Tar4QΔpp (chemoreceptor Tar, all-glutaminyl, lacking NWETF); test: CheB binding to Tar4QΔpp (pentapeptide-lacking) in Nanodiscs (biolayer interferometry); parameters: species or system E. coli; details: Tar 4Q, pentapeptide no, BLI, pH 7.5, 2% BSA (plus 2 mM DTT for CheB and CheBc); for dwell time (1/koff): calculated from mean koff; for dwell time (1/koff) / KA (equilibrium association constant): propagated SD; for KA (equilibrium association constant): calculated from mean kon and koff; for kon (apparent association rate constant): mean ± SD of at least three independent experiments
Experimental: as §1, §2, §3, §4

[6] = 50 mM Tris-HCl pH 7.5, 10% glycerol, 5 mM MgCl2, 50 mM KCl, 2% BSA (plus 2 mM DTT for CheB and CheBc), calculated from mean kon and koff, propagated SD, read-out: KD (equilibrium dissociation constant)
[7] = calculated from mean kon and koff, propagated SD

Molecule | Kd [1, 6] | dwell time (1/koff) ([1]; propagated SD) | KA (equilibrium association constant) [1, 7] | kon (apparent association rate constant) [1] | dwell time (1/koff) [2] | KA (equilibrium association constant) [2] | kon (apparent association rate constant) [2] | koff [3] | Kd [4, 6] | dwell time (1/koff) ([4]; propagated SD) | KA (equilibrium association constant) [4, 7] | kon (apparent association rate constant) [4] | dwell time (1/koff) [5] | KA (equilibrium association constant) [5] | kon (apparent association rate constant) [5]
B1 | 230 ± 60 µM | 2.8 ± 0.2 s | 4.4 ± 1 10^3 M^-1 | 1,600 ± 420 M^-1s^-1 | 1.6 ± 0.2 s | 1.2 ± 0.1 10^3 M^-1 | 750 ± 8 M⁻¹ s⁻¹ | 0.46 s⁻¹ | 160 ± 30 µM | 2.2 ± 0.1 s | 6.3 ± 1 10^3 M^-1 | 2,900 ± 480 M^-1s^-1 | 1.5 ± 0.05 s | 1.7 ± 0.4 10^3 M^-1 | 1,100 ± 260 M^-1s^-1
B2 | – | 2.1 ± 0.1 s | 1.7 ± 0.4 10^3 M^-1 | 810 ± 200 M⁻¹ s⁻¹ | 2.3 ± 0.2 s | 1.5 ± 0.3 10^3 M^-1 | 670 ± 140 M⁻¹ s⁻¹ | 0.48 s⁻¹ | – | 2.1 ± 0.4 s | 0.7 ± 0.2 10^3 M^-1 | 350 ± 60 M⁻¹ s⁻¹ | 1.7 ± 0.1 s | 0.8 ± 0.1 10^3 M^-1 | 480 ± 20 M⁻¹ s⁻¹

From article PMC8609364, “A Selective Tether Recruits Activated Response Regulator CheB to Its Chemoreceptor Substrate” (mBio, 2021)
